# Measured values reported in the RNAGym collection of RNA variant scans (doi:10.1021/acssynbio.7b00057).
# B1: Pistol ribozyme (parent)
# chain: GGGUCGUUGUUCCAUAAUCGCGUGGAUAUGGCACGCAAGUUUCUACCGGGCACCGUAAAUGUCCGACUGGAGCCGUUCGGGCGGCUAUAAACAGACCUCAGGCCCGAAGCGUGGCGGCACCUGCCGCCGGUGGUAAAAAAGAUCGGAAGAGCACACGUCU
# Variants of: B1
# Test: aptazyme ON/OFF ratio, guanine; higher = stronger switching; co-transcriptional cleavage with and without guanine
row,Variant,aptazyme ON/OFF ratio
1,U8A U10C C12U C13U,1.35
2,U8A U10C C12U C13G,1.11
3,U8A G9U U10G U11A C12U C13U,1.12
4,U8A G9U U10G U11A C12U C13G,1.16
5,U8A G9U U10G U11A C12U C13A,1.13
6,U8A G9U U10G U11A C12A C13G,1.16
7,U8A G9U U10G U11A C12A C13U,1.47
8,U8A G9U U10G U11A C12A C13A,1.22
9,U8A U10C U11G C12G,1.23
10,U8A U10C U11G C12U,1.37
11,U8A U10C U11G C12A,1.09
12,U8A U10A C12A C13U,1.18
13,U8A U10A C12A C13G,1.08
14,U8A U10A C12A C13A,1.19
15,U8A G9U U11A C12A C13A,1.22
16,U8A G9U U11A C12A C13U,1.38
17,U8A G9U U11A C12A C13G,1.18
18,U8A U10G U11A C12G C13U,1.15
19,U8A U10G U11A C12G C13G,1.51
20,U8A U10G U11A C12G C13A,1.2
21,U8A G9U U10G U11C C12G C13G,1.07

row,Variant,aptazyme ON/OFF ratio
1,U8A G9U U10G U11C C12G C13U,1.12
2,U8A G9U U10G U11C C12G C13A,1.08
3,U8A U10G U11C C12U C13A,1.3
4,U8A U10G U11C C12U C13U,1.2
5,U8A U10G U11C C12U C13G,1.27
6,U8A U10C U11C C13U,1.02
7,U8A U10C U11C C13G,1.04
8,U8A U10C U11C C13A,1.01
9,U8A U10A U11A C12G C13G,1.18
10,U8A U10A U11A C12G C13A,1.12
11,U8A U10A U11A C12G C13U,1.13
12,U8A G9U U10G U11C C12A C13A,1.09
13,U8A G9U U10G U11C C12A C13G,1.03
14,U8A G9U U10G U11C C12A C13U,1.15
15,U8A G9U U10C U11C C13U,1.03
16,U8A G9U U10C U11C C13G,1.01
17,U8A G9U U10C U11C C13A,1
18,U8A U10A U11A C12U C13U,1.17
19,U8A U10A U11A C12U C13G,1.09
20,U8A U10A U11A C12U C13A,1.2
21,U8A G9U U10C U11G,1.34

row,Variant,aptazyme ON/OFF ratio
1,U8A G9U U10C U11C,1.04
2,U8A U10G U11G C12G C13A,1.45
3,U8A U10G U11G C12G C13G,1.06
4,U8A U10A C12U C13G,1.13
5,U8A U10A C12U C13A,1.21
6,U8A U10A C12U C13U,1.25
7,U8A G9U U10C U11C C12A C13U,1.04
8,U8A G9U U10C U11C C12A C13G,1.05
9,U8A G9U U10C U11C C12A C13A,1.01
10,U8A U10C U11C C12A C13G,1.14
11,U8A U10C U11C C12A C13U,1.07
12,U8A U10C U11C C12A C13A,1.18
13,U8A G9U U10G U11G C12A C13G,1.14
14,U8A G9U U10G U11G C12A C13A,1.16
15,U8A G9U U10G U11G C12A C13U,1.26
16,U8A U10G C13G,1.23
17,U8A U10G C13A,1.52
18,U8A U10G C13U,1.18
19,U8A U10C C12G,1.3
20,U8A U10C C12A,1.31
21,U8A U10C C12U,3.12

row,Variant,aptazyme ON/OFF ratio
1,U8A G9U U11G C12A C13G,1.41
2,U8A G9U U11G C12A C13U,1.23
3,U8A G9U U11G C12A C13A,1.11
4,U8A U10A U11C C12U,1.01
5,U8A U10A U11C C12G,1.08
6,U8A U10A U11C C12A,1.09
7,U8A G9U U11A C12G C13G,1.3
8,U8A G9U U11A C12G C13A,1.32
9,U8A G9U U11A C12G C13U,1.3
10,U8A U10G U11A C13U,1.13
11,U8A U10G U11A C13G,1.12
12,U8A U10G U11A C13A,1.07
13,U8A U10C U11A C12A,1.13
14,U8A U10C U11A C12G,1.19
15,U8A U10C U11A C12U,1.2
16,U8A U10C U11A C12G C13A,1.15
17,U8A U10C U11A C12G C13G,1.39
18,U8A U10C U11A C12G C13U,1.34
19,U8A G9U U11G C13A,1.14
20,U8A G9U U11G C13U,1.24
